# Laboratory results as given in patent US20040009486A1, “Compositions and methods utilizing DNA polymerases” (priority 1999, published 2004).
# Like-named read-outs stand apart in the source and are kept apart here.
# Tested on: rhodamine labeled-ddNTP and primer:template (pBluescript II)
# Experiment: Steady-state kinetics for rhodamine labeled ddNTPs and primer:template
# Format: biochemical
# Conditions: 60° C.
# Protocol: Km and Vmax values for rhodamine labeled-ddNTP incorporation were measured by incubating 50 nM primer: template with limiting amounts of polymerase (0.1 units or 5 nM) and varying concentrations of rhodamine labeled-ddNTP ranging from 0.1 nM to 500 nM. Samples were incubated at 60° C. for 10 minutes. The reactions were then quenched with ice-cold 0.2 M EDTA (final concentration). Unincorporated rhodamine labeled ddNTPs were removed by purifying the extended primer:templates on CENTRI-SEP spin columns. Reactions were then dried, and the pellets dissolved in 3:1 formamide:EDTA/blue dextran and analyzed by 6% denaturing PAGE on an ABI 377 sequencer. All peak area quantitations were performed using 3.1.2 GeneScan software and Km and Vmax values were calculated using Lineweaver-Burk plots.
# Km and Vmax values for primer:template were measured with limiting amounts of enzyme (0.1 units or 5 nM) in the presence of 100 nM of R110-ddGTP and varying concentrations of primer:template (pBL31G:pBluescript II) ranging from 0.5 to 100 nM. Samples were incubated for 10 minutes at 60° C. The reactions were then quenched, purified from unincorporated rhodamine labeled-ddNTPs, and analyzed as described above.
# Km and Vmax values for rhodamine-ddNTP incorporation were measured as described Patel, P. H. et al. (2001). J. Biol. Chem. 276, 5044-51 by incubating 50 nM primer:template with limiting amounts of DNA polymerase (0.1 units, 5 nM) and varying concentrations of rhodamine labeled-ddNTP (0.1 nM to 500 nM). All single nucleotide incorporations with R6G-ddATP and TAMRA-ddATP employed pBL34A:pBluescript II, while reactions with TAMRA-ddCTP were performed with pBL25C:pBluescript II. The 10× reaction buffer used for JDF-3 DNA polymerase contained 200 mM Tris-HCl (pH 8.8), 100 mM KCl, 100 mM (NH4)2SO4, and 20 mM MgSO4, while the 10× reaction buffer employed with the Taq F667Y mutant consisted of 260 mM Tris-HCl (pH 9.5) and 65 mM MgCl2. Samples were incubated at 60° C. for 10 minutes, and the reactions were quenched with ice-cold 0.2 M EDTA (final concentration). Unincorporated rhodamine-ddNTPs were removed with CENTRI-SEP spin columns according to the manufacturer's manual. Reactions were dried, and the pellets were dissolved in 3:1 formamide:EDTA/blue dextran and analyzed by 6% denaturing PAGE on an ABI 377 sequencer. Peak area quantitations were performed using 3.1.2 GeneScan® software and Km and Vmax values were calculated using Lineweaver-Burk plots.
# Km and Vmax values for primer:template were measured with limiting amounts of enzyme (0.1 units, 5 nM) in the presence of 100 nM dye-ddNTP and varying concentrations of primer:template (0.5-100 nM). Single nucleotide incorporations with R110-ddGTP employed pBL31G:pBluescript II, while reactions with ROX-ddCTP were carried out with pBL25C:pBluescript II. Samples were incubated and analyzed as described above.
substance,measurement,setting,value
"Taq F667Y: ThermoSequenase, Taq F667Y mutant DNA polymerase from Amersham Pharmacia Biotech",Vmax(fmol/min) TAMRA-ddCTP,pBL25C:pBluescript,2.3 fmol/min
same,Km,"pBL25C:pBluescript, read-out: Km(nM) TAMRA-ddCTP",0.3 nM
same,Vmax(fmol/min) Primer:template,"pBL31G:pBluescript, 100 nM R110-ddGTP",7.4 fmol/min
same,Km,"pBL31G:pBluescript, 100 nM R110-ddGTP, read-out: Km(nM) Primer:template",8 nM
same,Vmax(fmol/min) R6G-ddATP,pBL34A:pBluescript,9 fmol/min
same,Vmax(fmol/min) TAMRA-ddATP,pBL34A:pBluescript,1.9 fmol/min
same,Km,"pBL34A:pBluescript, read-out: Km(nM) R6G-ddATP",0.35 nM
same,Km,"pBL34A:pBluescript, read-out: Km(nM) TAMRA-ddATP",0.6 nM
